Measurements published in patent US20250215097A1 (BEIJING TIANNUOJIANCHENG PHARMA TECH, published 2025).
Substitutions are numbered along the chain they refer to.

T1: rabbit CCR8 (rabbit)
T1 construct: Transiently expressed on HEK293 cells; also called HEK293-rabbit CCR8 cells; rabbit CCR8+ cells
T1 chain: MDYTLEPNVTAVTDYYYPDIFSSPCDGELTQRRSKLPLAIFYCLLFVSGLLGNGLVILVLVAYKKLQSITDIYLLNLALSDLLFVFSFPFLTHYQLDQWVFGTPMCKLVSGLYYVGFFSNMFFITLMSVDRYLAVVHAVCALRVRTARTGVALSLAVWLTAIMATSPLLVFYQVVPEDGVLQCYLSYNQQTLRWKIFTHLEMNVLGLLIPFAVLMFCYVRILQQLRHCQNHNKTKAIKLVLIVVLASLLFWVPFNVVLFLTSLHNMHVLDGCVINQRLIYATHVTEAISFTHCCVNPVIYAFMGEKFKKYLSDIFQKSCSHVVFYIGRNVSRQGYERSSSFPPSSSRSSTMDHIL

B1: h87D8 H1K1 (antibody, human IgG1, V domains shown)
VH: EVQLVESGGGLVQPGGSLRLSCAASGFTFNTYAMNWVRQAPGKGLEWVARIRSKSNNYATYYADSVKGRFTISRDDSQSSLYLQMNSLRAEDTAVYYCVRGKEAGAYYAMDYWGQGTLVTVSS
VL: DIVMTQSPLSLPVTPGEPASISCRSSKSLLHSNGNTYLYWFLQKPGQSPQLLIYRMSNLASGVPDRFSGSGSGTDFTLKISRVEAEDVGVYYCMQHLEYPLTFGQGTKLEIK
notes: Humanized; also called h87D8 VHv1+h87D8 VKv1
B2: h144D2 H1K1 (antibody, human IgG1, V domains shown)
VH: B1 VH with T31A, Y32F
VL: B1 VL
notes: Humanized; also called h144D2 VHv1+h87D8 VKv1
B3: h87D8 H2K4 hIgG1 e5 (antibody)
heavy: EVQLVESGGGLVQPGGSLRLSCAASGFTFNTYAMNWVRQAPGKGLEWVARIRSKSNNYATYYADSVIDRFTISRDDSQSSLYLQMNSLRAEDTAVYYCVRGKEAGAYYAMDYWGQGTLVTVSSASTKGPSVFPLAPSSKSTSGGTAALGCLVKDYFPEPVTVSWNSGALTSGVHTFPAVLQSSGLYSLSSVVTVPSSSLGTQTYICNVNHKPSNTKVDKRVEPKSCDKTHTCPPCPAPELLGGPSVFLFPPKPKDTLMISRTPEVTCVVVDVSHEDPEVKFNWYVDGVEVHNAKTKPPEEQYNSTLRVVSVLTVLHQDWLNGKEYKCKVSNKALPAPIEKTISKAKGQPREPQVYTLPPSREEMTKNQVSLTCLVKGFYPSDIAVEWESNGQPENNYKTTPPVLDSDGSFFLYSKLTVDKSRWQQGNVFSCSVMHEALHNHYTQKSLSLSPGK
light: DIVMTQSPLSLPVTPGEPASISCRSSKSLLHSNYNTYLYWFLQKPGQSPQLLIYRTSNLASGVPDRFSGSGSGTDFTLKISRVEAEDVGVYYCMQHLEYPLTFGQGTKLEIKRTVAAPSVFIFPPSDEQLKSGTASVVCLLNNFYPREAKVQWKVDNALQSGNSQESVTEQDSKDSTYSLSSTLTLSKADYEKHKVYACEVTHQGLSSPVTKSFNRGEC
notes: also called h87D8 H2K4 e5; h87D8H2K4e5; copies: 2 + 2
B4: h87D8 H2K4 hIgG1 (antibody)
heavy: not shown
light: B3 light
notes: Humanized, wild-type human IgG1 Fc; also called h87D8 VHv2+h87D8 VKv4; copies: 2 + 2

Assays:
human CCR8 [1] = molecular target: T2, human CCR8 (human, UniProt P51685 1-355); assay: cell-based or functional assay
T2 sequence (P51685 whole entry): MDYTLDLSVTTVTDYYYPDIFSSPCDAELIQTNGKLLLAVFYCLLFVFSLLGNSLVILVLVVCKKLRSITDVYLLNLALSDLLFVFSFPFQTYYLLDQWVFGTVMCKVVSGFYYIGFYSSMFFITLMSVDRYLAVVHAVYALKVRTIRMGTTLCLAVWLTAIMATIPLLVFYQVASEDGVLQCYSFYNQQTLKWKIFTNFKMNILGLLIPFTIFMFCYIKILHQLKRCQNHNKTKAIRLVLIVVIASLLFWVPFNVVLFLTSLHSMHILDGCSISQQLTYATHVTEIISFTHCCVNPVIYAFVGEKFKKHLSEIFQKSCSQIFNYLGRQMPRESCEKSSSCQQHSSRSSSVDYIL

cynomolgus monkey CCR8 = molecular target: T3, cynomolgus monkey CCR8 (cynomolgus monkey, UniProt O97665 1-356 (rhesus entry)); assay: flow cytometry on CHO-cynoCCR8 cells
T3 construct: Full-length, stably expressed on CHO cells; also called cynoCCR8; CHO-cynoCCR8
T3 sequence (O97665 other isoform, or with tags, fused parts or gaps): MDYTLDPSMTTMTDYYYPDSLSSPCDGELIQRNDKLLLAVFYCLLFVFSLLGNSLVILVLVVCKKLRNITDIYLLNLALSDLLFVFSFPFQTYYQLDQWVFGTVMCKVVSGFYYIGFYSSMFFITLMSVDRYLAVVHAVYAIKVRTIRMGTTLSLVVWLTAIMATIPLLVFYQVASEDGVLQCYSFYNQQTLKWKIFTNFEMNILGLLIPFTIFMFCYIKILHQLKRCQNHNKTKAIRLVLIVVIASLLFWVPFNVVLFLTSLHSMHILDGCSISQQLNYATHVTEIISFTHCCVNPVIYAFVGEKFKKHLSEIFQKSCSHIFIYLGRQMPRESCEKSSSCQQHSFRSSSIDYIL
Method: (§1) 5×10⁴ CHO-hCCR8 or CHO-cynoCCR8 cells were added per well in a 96-well U-shaped plate and centrifuged to discard the supernatant. 100 μL of a gradiently diluted anti-CCR8 chimeric antibody was added per well and the mixture was incubated on ice for 60 minutes. After the unbound primary antibody was washed away, 50 μL, of a secondary antibody AlexaFluro647 anti-human IgG (Jackson Immuno Research #109-606-170) was added per well and the mixture was incubated on ice for 30 minutes. After the washing, 50 μL of 5 μg/mL of a Pi/BSA solution was added to each well and the mixture was incubated on ice for 5 minutes. Then excess secondary antibody was washed away with 0.5% BSA, the cells were resuspended by adding a PBS solution, and binding of the antibody to the cells was detected using a flow cytometer (BD Celesta). The fluorescence value of a PI-negative cell population was analyzed. Cell-binding curves were fitted by Graphpad Prism 7.

human CCR8 [2] = molecular target: T2, human CCR8; assay: flow cytometry on CHO-hCCR8 cells
Method: as §1

human CCR8 [3] = molecular target: T2, human CCR8; assay: cell-based or functional assay; remark: listed apart in the source
FcγRIIIAV158 = molecular target: T4, FcγRIIIAV158 (UniProt P08637 17-208); assay: SPR (Biacore T200), antibody captured by anti-human IgG F(ab')2 on CM5, FcγRIIIA as analyte; FcγRIIIAV158
T4 construct: V158 allotype; also called FcγRIIIA158V
T4 sequence (P08637 17-208 F176V limits assumed): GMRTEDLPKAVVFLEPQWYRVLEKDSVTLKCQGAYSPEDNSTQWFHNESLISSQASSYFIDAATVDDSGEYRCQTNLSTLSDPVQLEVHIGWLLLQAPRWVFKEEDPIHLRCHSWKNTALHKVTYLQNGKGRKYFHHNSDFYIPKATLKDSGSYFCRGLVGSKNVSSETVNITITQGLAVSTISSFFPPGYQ
Method: (§2) The affinities of the Fc function-enhanced humanized CCR8 antibodies to FcγRIIIAV158 and FcγRIIIAF158 were detected by using a surface plasmon resonance technology (SPR/Biacore T200). A coupling reagent Amine Coupling Kit (GE Healthcare BR-1000-50) was used to couple Goat Anti-Human IgG F(ab′)2 to the surface of a CM5 chip. h87D8 H2K4 e5 or h87D8 H2K4 was captured through high-affinity binding with the antibodies and then gradiently diluted FcγRIIIAV158 or FcγRIIIAF158 was injected in sequence. The binding time was set to be 120 seconds, the dissociation time was set to be 200 seconds, regeneration was performed for 30 seconds by 10 mM Glycine-HCl with the pH value of 1.75, and the flow rate was set to be […]. The measured data were fitted to obtain an equilibrium dissociation constant. The affinities of h87D8 H2K4 e5 or h87D8 H2K4 to FcγRIIIAV158 and FcγRIIIAF158 were respectively measured. […] The binding of h87D8 H2K4 e5 to FcγRIIIAV158 and FcγRIIIAF158 was stronger than that of h87D8 H2K4.

rabbit CCR8 = molecular target: T1, rabbit CCR8; assay: flow cytometry on HEK293-rabbit CCR8 cells
Method: A lentiviral vector plasmid containing rabbit CCR8 was constructed by using a rabbit CCR8 cDNA (biosynthesized by GENEWIZ, Suzhou and having the amino acid sequence shown in SEQ ID NO. 112) as a template. The lentiviral vector plasmid containing rabbit CCR8 was transfected into HEK293 cells (hereinafter referred to HEK293-rabbit CCR8 cells) by using PEI MAX® (Polysciences 9002-98-6) as a transfection reagent referring to instructions of a transfection reagent. 24 hours after the transfection, 5×10⁴ HEK293-rabbit CCR8 cells were added per well in a 96-well U-shaped plate and centrifuged to discard the supernatant. 100 μL of a gradiently diluted h87D8 H2K4 e5 or anti-KLH isotype control antibody was added per well and the mixture was incubated on ice for 60 minutes. After the unbound primary antibody was washed away, 50 μL of a secondary antibody AlexaFluro647 anti-human IgG (Jackson Immuno Research #109-606-170) was added per well and the mixture was incubated on ice for 30 minutes. After the washing. […] Then excess secondary antibody was washed away with 0.5% BSA, the cells were resuspended by adding a PBS solution, and binding of the antibody to the cells was detected using a flow cytometer (Intellicyte iQue). The fluorescence value of a PI-negative cell population was analyzed. […]

FcγRIIIAF158 = molecular target: T5, FcγRIIIAF158 (UniProt P08637 17-208); assay: SPR (Biacore T200), antibody captured by anti-human IgG F(ab')2 on CM5, FcγRIIIA as analyte; FcγRIIIAF158
T5 construct: F158 allotype; also called FcγRIIIA158F
T5 sequence (P08637 17-208 limits assumed): as the sequence (P08637 17-208 F176V limits assumed) above, with V160F counted along it
Method: as §2

Binder	ADCC half-maximal effective concentration (EC50), NK92-CD16A effectors, HEK293-hCCR8 targets (human CCR8 [1])	EC50 (cynomolgus monkey CCR8)	EC50 (human CCR8 [2])	ADCC EC50 (nM), PBMC FcγRIIIA158F/F effectors, HEK293-hCCR8 targets (human CCR8 [3])	ADCC EC50 (nM), PBMC FcγRIIIA158V/V effectors, HEK293-hCCR8 targets (human CCR8 [3])	ADCC maximal lysis rate, PBMC FcγRIIIA158F/F effectors, HEK293-hCCR8 targets (human CCR8 [3])	ADCC maximal lysis rate, PBMC FcγRIIIA158V/V effectors, HEK293-hCCR8 targets (human CCR8 [3])	ADCC half-maximal effective concentration EC50, NK92-CD16A effectors, HuT78 targets (human CCR8 [1])	ADCC maximal lysis rate, NK92-CD16A effectors, HEK293-hCCR8 targets (human CCR8 [1])	half-maximal effective concentration EC50 of inhibition of the Ca2+ current signal, CHO-hCCR8 cells, CCL1 stimulus (human CCR8 [1])	Kd (FcγRIIIAV158)	EC50 (rabbit CCR8)	Kd (FcγRIIIAF158)
B1	0.01 nM	1.19 nM	0.53 nM										
B2	0.02 nM	1.16 nM	0.89 nM										
B3				0.02 nM	0.01 nM	77%	75%	0.53 nM	61%	5.2 nM	270 nM	0.21 nM	433 nM
B4		2.28 nM	0.68 nM								861 nM		1300 nM
